Data taken from the supplement of paper PMC7125110.
± gives the standard error. Variants at the floor of the assay were thinned out.

B1: glmS ribozyme (parent)
chain: AUAAAAGCGCCAGAACUACAGAAAUGUAGUUGACGAGGAGGAGGUUUAUCGAAUUUUCGGCGGAUGCCUCCAAA

Key:
Conditions in all cases: with glucosamine-6-phosphate
glucosamine-6-phosphate [1] = variants of: B1; test: self-cleavage kobs at 40 uM GlcN6P; higher = faster cleavage; RNA array
Summary of the method: (§1)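 Glucosamine-6-phosphate, from 40 μM to 10 mM in HEPES/KCl/Mg(OAc)2 buffer, was flowed over sequenced MiSeq chips carrying barcoded ribozyme variants transcribed in situ by E. coli RNA polymerase. A hybridised Cy3 probe tracked the variants at 37 °C as tiles were imaged over ~14 h. kobs, kcat and KM were obtained by fitting normalised per-tile medians to exponential decays and then applying weighted Michaelis–Menten fits across concentrations.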

glucosamine-6-phosphate [2] = variants of: B1; test: self-cleavage kobs at 160 uM GlcN6P; higher = faster cleavage; RNA array
Summary of the method: as §1

glucosamine-6-phosphate [3] = variants of: B1; test: self-cleavage kobs at 640 uM GlcN6P; higher = faster cleavage; RNA array
Summary of the method: as §1

glucosamine-6-phosphate [4] = variants of: B1; test: self-cleavage kobs at 2500 uM GlcN6P; higher = faster cleavage; RNA array
Summary of the method: as §1

glucosamine-6-phosphate [5] = variants of: B1; test: self-cleavage kobs at 10000 uM GlcN6P; higher = faster cleavage; RNA array
Summary of the method: as §1

Variant	self-cleavage kobs at 40 uM GlcN6P (glucosamine-6-phosphate [1]) [s⁻¹]	self-cleavage kobs at 160 uM GlcN6P (glucosamine-6-phosphate [2]) [s⁻¹]	self-cleavage kobs at 640 uM GlcN6P (glucosamine-6-phosphate [3]) [s⁻¹]	self-cleavage kobs at 2500 uM GlcN6P (glucosamine-6-phosphate [4]) [s⁻¹]	self-cleavage kobs at 10000 uM GlcN6P (glucosamine-6-phosphate [5]) [s⁻¹]
G7U G35C	< 1e-05	< 1e-05	< 1e-05	< 1e-05	< 1e-05
G7U G35A	< 1e-05	< 1e-05	< 1e-05	< 1e-05	< 1e-05
C8A C67G	< 1e-05	< 1e-05	< 1e-05	< 1e-05	< 1e-05
G7U C16G	< 1e-05	–	< 1e-05	–	< 1e-05
C8A A53C G59A C68A	< 1e-05	–	–	–	< 1e-05
A6U C34A	< 1e-05	< 1e-05	< 1e-05	< 1e-05	< 1e-05
A6U C34U	< 1e-05	< 1e-05	< 1e-05	–	< 1e-05
G7U G41U U46A G62U	< 1e-05	–	< 1e-05	< 1e-05	< 1e-05
A6U C10A G38U	< 1e-05	–	–	–	< 1e-05
G7C U30A	< 1e-05	< 1e-05	< 1e-05	< 1e-05	< 1e-05
C8A C10U C34G	< 1e-05	–	–	–	–
A6U C8G A36G U45A A64U	< 1e-05	–	< 1e-05	–	–
A6U C16U U47A G63U	< 1e-05	–	–	–	< 1e-05
G7A G29C U57G C70G	0.000158 ± 7.6e-05	–	–	–	0.000678 ± 0.00017
G7U A33C	< 1e-05	< 1e-05	< 1e-05	< 1e-05	< 1e-05
G7U C10G A12U U65G C68G	7.58e-05 ± 2.2e-05	–	–	–	5.57e-05 ± 1.5e-05
G7U C11G	< 1e-05	< 1e-05	< 1e-05	< 1e-05	< 1e-05
G7A A14U C58A C68G	0.000142 ± 4e-05	–	0.00047 ± 0.00023	–	0.00011 ± 2.5e-05
A6U G41A A42U	< 1e-05	–	–	–	< 1e-05
G7C C11G G51A	< 1e-05	–	–	–	< 1e-05
G7C G43U	< 1e-05	< 1e-05	< 1e-05	–	< 1e-05

Variant	self-cleavage kobs at 40 uM GlcN6P (glucosamine-6-phosphate [1]) [s⁻¹]	self-cleavage kobs at 160 uM GlcN6P (glucosamine-6-phosphate [2]) [s⁻¹]	self-cleavage kobs at 640 uM GlcN6P (glucosamine-6-phosphate [3]) [s⁻¹]	self-cleavage kobs at 2500 uM GlcN6P (glucosamine-6-phosphate [4]) [s⁻¹]	self-cleavage kobs at 10000 uM GlcN6P (glucosamine-6-phosphate [5]) [s⁻¹]
C8A C50U C67G	< 1e-05	–	–	–	–
A6G G60A	< 1e-05	< 1e-05	< 1e-05	< 1e-05	< 1e-05
G7C G40C	< 1e-05	–	–	< 1e-05	< 1e-05
G7C A15U G59C	< 1e-05	< 1e-05	< 1e-05	< 1e-05	< 1e-05
G7C A14U	< 1e-05	< 1e-05	< 1e-05	< 1e-05	–
C8A G43A	< 1e-05	< 1e-05	< 1e-05	< 1e-05	–
G7U G29A A48G	< 1e-05	–	–	–	< 1e-05
C8A G51U C61U	< 1e-05	< 1e-05	< 1e-05	< 1e-05	–
G7U U55G	< 1e-05	< 1e-05	–	–	< 1e-05
G7A A15U C58A	< 1e-05	–	< 1e-05	< 1e-05	< 1e-05
G7C C10U A15U U49C	< 1e-05	–	–	–	< 1e-05
G7A G51A C67A	< 1e-05	–	–	–	< 1e-05
G7U G37C A39C G62C	< 1e-05	–	–	–	–
G7U C16G G59A	< 1e-05	–	< 1e-05	–	< 1e-05
A6G U31C U55G	< 1e-05	–	–	4.23e-05 ± 1.7e-05	5.16e-05 ± 1.9e-05
G7C A64U	< 1e-05	–	–	< 1e-05	< 1e-05
G7C A64G	< 1e-05	< 1e-05	< 1e-05	< 1e-05	–
G7U C10A A12U A36G C50G	0.000144 ± 2.8e-05	–	0.0003 ± 0.0001	–	0.000157 ± 3.1e-05
A6U G62A	< 1e-05	< 1e-05	–	–	–
A6U G7U C10A G29A C34A C67G C68A C71U	9.49e-05 ± 2.1e-05	–	6.07e-05 ± 1.4e-05	–	3.01e-05 ± 1.4e-05
